Assay results as given in paper doi:10.1101/2020.07.13.201541.

Legend:
Experiment in all cases: SPR
[1] = target: HtsH2C-HA-His (cytoplasmic fragment of HtsH2) (Lysobacter enzymogenes)
[2] = target: HtsH3C-Myc-His (cytoplasmic fragment of HtsH3) (Lysobacter enzymogenes)
[3] = target: RpfG-MBP (Lysobacter enzymogenes)

| Kd [1] | Kd [2] | Kd [3] | Substance |
| --- | --- | --- | --- |
| 0.0962 nM | 0.16 nM | 0.0668 nM | HtsH1C-Flag-His (cytoplasmic fragment of HtsH1) (domain or fragment) |
| – | 0.178 nM | 0.3 nM | HtsH2C-HA-His (cytoplasmic fragment of HtsH2) (domain or fragment) |
| – | – | 0.168 nM | HtsH3C-Myc-His (cytoplasmic fragment of HtsH3) (domain or fragment) |
